The data set in a line: self-splicing fitness, log relative to wild type (ln ratio); higher = more splicing; Tetrahymena group I intron in knt gene, E. coli kanamycin selection, DiMSum; sequences stand for … in CUCUCU…GGAGGGAAAAGUUAUCAGGCAUGCACCUGGUAGCUAGUCUUUAAACCAAUAGAUUGCAUCGGUUUAAAAGGCAAGACCGUCAAAUUGCGGGAAAGGGGUCAACAGCCGUUCAGUACCAAGUCUCAGGGGAAACUUUGAGAUGGCCUUGCAAAGGGUAUGGUAAUAAGCUGACGGACAUGGUCCUAACCACGCAGCCAAGUCCUAAGUCAACAGAUCUUCUGUUGAUAUGGAUGCAGUUCACAGACUAAAUGUCGGUCGGGGAAGAUGUAUUCUUCUCAUAAGAUAUAGUCGGACCUCUCCUUAAUGGGAGCUAGCGGAUGAAGUGAUGCAACACUGGAGCCGCUGGGAACUAAUUUGUAUGCGAAAGUAUAUUGAUUAGUUUUGGAGUACUCGUGGUCG
An outline of the steps: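 Six replicate transformations of E. coli BL21(DE3) with a pET-22b(+) library were grown overnight at 37°C or 30°C. The library randomised all eight P1ex-region intron nucleotides, the intron lying in the knt kanamycin-resistance gene, and plates were LB agar with or without 25 μg/mL kanamycin plus 100 μg/mL carbenicillin, 50 μM IPTG and 0.2% rhamnose. Pooled colonies were amplicon-sequenced on an Illumina HiSeq 2500, and fitness is the DiMSum error-weighted combination of wild-type-normalised replicate fold changes, kanamycin versus none.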

78 sequences from the supplement of paper PMC7877785 can be followed below.

± gives the uncertainty stated by the source.

Regarding CCCGAGCAAUAUUACGGGCA, the “self-splicing fitness (ln)” value was -3.2 ± 0.23 (30 °C) and -2.66 ± 0.23 (37 °C). As for CUUAAGCAAUAUUACGUGGU, the “self-splicing fitness (ln)” value was -4 ± 0.21 (30 °C) and -2.35 ± 0.2 (37 °C). On to UUGCAGCAAUAUUACGCCGU, for which the “self-splicing fitness (ln)” value is, setting by setting: (30 °C) -3.46 ± 0.36; (37 °C) -1.41 ± 0.3. In the case of GAACAGCAAUAUUACGAUCC, the “self-splicing fitness (ln)” value reads like this: (30 °C) -2.18 ± 0.17; (37 °C) -0.784 ± 0.24. In the same order, the values of UGGAAGCAAUAUUACGGUGU are -1.46 ± 0.14 and -3.33 ± 0.27. With UCGGAGCAAUAUUACGGUCA, where the note is “30 °C”, the “self-splicing fitness (ln)” value is -0.984 ± 0.18.

On to GAACAGCAAUAUUACGCGUC, for which the “self-splicing fitness (ln)” value is, setting by setting: (30 °C) -2.99 ± 0.12; (37 °C) -3.19 ± 0.16. In the same order, the values of UUCGAGCAAUAUUACGGGCA are -2.27 ± 0.17 and -0.711 ± 0.15. As to GCUGAGCAAUAUUACGGCUA, the “self-splicing fitness (ln)” value (30 °C) was -2.46 ± 0.19 and the “self-splicing fitness (ln)” value (37 °C) was -1.66 ± 0.19. With UCAUAGCAAUAUUACGGUAG, the “self-splicing fitness (ln)” value is -3.28 ± 0.23 (30 °C) and -1.77 ± 0.17 (37 °C).

Take GGUUAGCAAUAUUACGUGUA: the “self-splicing fitness (ln)” value (30 °C) is -1.7 ± 0.13 and the “self-splicing fitness (ln)” value (37 °C) was -0.817 ± 0.1. On to CAUAAGCAAUAUUACGGAAA, for which, under “37 °C”, the “self-splicing fitness (ln)” value was -0.782 ± 0.37. With AUCGAGCAAUAUUACGUCCA, under “37 °C”, the “self-splicing fitness (ln)” value is 0.309 ± 0.47. With GGGAAGCAAUAUUACGCGUA, the “self-splicing fitness (ln)” value is, setting by setting: (30 °C) -0.73 ± 0.14; (37 °C) -0.267 ± 0.14. In the same order, the values of GGUCAGCAAUAUUACGUUGU are -1.51 ± 0.057 and -0.47 ± 0.068.

Turning to CUAAAGCAAUAUUACGGCUA, the “self-splicing fitness (ln)” value was -3.85 ± 0.21 (30 °C) and -2.34 ± 0.25 (37 °C). In the same order, the values of UAGCAGCAAUAUUACGACGU are -1.14 ± 0.073 and -0.658 ± 0.1. Take UGUGAGCAAUAUUACGUCAU: the “self-splicing fitness (ln)” value (37 °C) was -1.32 ± 0.4. As for AUGGAGCAAUAUUACGAUAU, the “self-splicing fitness (ln)” value runs as follows: (30 °C) -1.77 ± 0.12; (37 °C) -1.17 ± 0.15. In the same order, the values of GAGUAGCAAUAUUACGUGUA are -2.97 ± 0.11 and -1.35 ± 0.1. Regarding GGUCAGCAAUAUUACGAGCU, the “self-splicing fitness (ln)” value was -0.647 ± 0.097 (30 °C) and -0.497 ± 0.12 (37 °C). Take UGGUAGCAAUAUUACGAAUG: the “self-splicing fitness (ln)” value runs as follows: (30 °C) -1.95 ± 0.12; (37 °C) -1.02 ± 0.12.

Turning to UGACAGCAAUAUUACGCCCG, the “self-splicing fitness (ln)” value (30 °C) was -0.421 ± 0.12 and the “self-splicing fitness (ln)” value (37 °C) was 0.601 ± 0.2. In the same order, the values of UACGAGCAAUAUUACGAUAA are -2.9 ± 0.16 and -2.05 ± 0.16. Turning to UCCAAGCAAUAUUACGAAAU, the “self-splicing fitness (ln)” value is -2.02 ± 0.2 (30 °C) and -1.98 ± 0.21 (37 °C). Take UUCGAGCAAUAUUACGGAGU: under “37 °C”, the “self-splicing fitness (ln)” value is -2.26 ± 0.32. For CGACAGCAAUAUUACGGAAG, the “self-splicing fitness (ln)” value is -2.1 ± 0.068 (30 °C) and -1.24 ± 0.083 (37 °C). In the same order, the values of AGGUAGCAAUAUUACGUGCA are -0.829 ± 0.014 and -0.279 ± 0.033. In the same order, the values of AAUUAGCAAUAUUACGGGUG are -1.04 ± 0.066 and -0.54 ± 0.083. Consider CCUGAGCAAUAUUACGUAUC, for which the “self-splicing fitness (ln)” value (37 °C) was -2.46 ± 0.23. In the case of GAGGAGCAAUAUUACGUGGC, under “30 °C”, the “self-splicing fitness (ln)” value was -3.34 ± 0.24.

On to CCCUAGCAAUAUUACGCAGU, for which the “self-splicing fitness (ln)” value was -4.87 ± 0.36 (30 °C) and -2.2 ± 0.22 (37 °C).

For CGAGAGCAAUAUUACGGCAU, the “self-splicing fitness (ln)” value (30 °C) is -3.2 ± 0.42 and the “self-splicing fitness (ln)” value (37 °C) was -2.15 ± 0.46.

With CAUAAGCAAUAUUACGCCUG, the “self-splicing fitness (ln)” value was -2.54 ± 0.22 (30 °C) and -1.39 ± 0.17 (37 °C). In the same order, the values of GUAUAGCAAUAUUACGCUAA are -2.52 ± 0.2 and -1.57 ± 0.16.

AGCCAGCAAUAUUACGAUGU: the “self-splicing fitness (ln)” value was -2.62 ± 0.16 (30 °C) and -1.32 ± 0.13 (37 °C). As to CUUAAGCAAUAUUACGACGU, the “self-splicing fitness (ln)” value runs as follows: (30 °C) -2.75 ± 0.16; (37 °C) -1.44 ± 0.15. On to GCAGAGCAAUAUUACGUGUC, for which the “self-splicing fitness (ln)” value (30 °C) is -4.24 ± 0.26 and the “self-splicing fitness (ln)” value (37 °C) is -2.16 ± 0.21. Turning to ACCAAGCAAUAUUACGAUCU, the “self-splicing fitness (ln)” value was -1.29 ± 0.064 (30 °C) and 0.0583 ± 0.076 (37 °C).

Take UUUCAGCAAUAUUACGUUGC: the “self-splicing fitness (ln)” value by setting is: (30 °C) -4.04 ± 0.29; (37 °C) -2.5 ± 0.24. In the same order, the values of CCAGAGCAAUAUUACGAUUG are -1.42 ± 0.11 and -0.92 ± 0.14. In the case of AGUCAGCAAUAUUACGGCAG, the “self-splicing fitness (ln)” value is -0.629 ± 0.11 (30 °C) and -0.145 ± 0.15 (37 °C). In the same order, the values of UUACAGCAAUAUUACGUAAG are -0.248 ± 0.068 and -0.257 ± 0.097. In the same order, the values of CCUUAGCAAUAUUACGAUGG are -2.24 ± 0.13 and -2.26 ± 0.16.

On to AGUCAGCAAUAUUACGCAAU, for which the “self-splicing fitness (ln)” value is, setting by setting: (30 °C) -0.997 ± 0.075; (37 °C) 0.245 ± 0.096. Turning to GGCCAGCAAUAUUACGCGAU, the “self-splicing fitness (ln)” value by setting is: (30 °C) -3.5 ± 0.14; (37 °C) -2.17 ± 0.14. Turning to AGUAAGCAAUAUUACGCUCA, the “self-splicing fitness (ln)” value was -0.405 ± 0.12 (30 °C) and -0.595 ± 0.11 (37 °C).

As to GGCAAGCAAUAUUACGGGUC, the “self-splicing fitness (ln)” value runs as follows: (30 °C) -3.2 ± 0.17; (37 °C) -0.979 ± 0.12. Take GAGCAGCAAUAUUACGGGGC: the “self-splicing fitness (ln)” value is, setting by setting: (30 °C) -3.57 ± 0.21; (37 °C) -2.52 ± 0.25. In the same order, the values of UGUGAGCAAUAUUACGGACU are -2.24 ± 0.22 and -0.378 ± 0.22. In the same order, the values of UCAAAGCAAUAUUACGGGUU are -3.13 ± 0.15 and -2.59 ± 0.15. In the same order, the values of AUUCAGCAAUAUUACGAUAA are -0.72 ± 0.086 and -0.295 ± 0.099. As for GGACAGCAAUAUUACGAAGU, the “self-splicing fitness (ln)” value reads like this: (30 °C) -1.34 ± 0.14; (37 °C) -0.422 ± 0.14. GUGUAGCAAUAUUACGUCAU: the “self-splicing fitness (ln)” value was -3.23 ± 0.2 (30 °C) and -2.63 ± 0.17 (37 °C). Regarding GCGUAGCAAUAUUACGGGAG, the “self-splicing fitness (ln)” value (37 °C) was -2.28 ± 0.35.

For the sequence UCUGAGCAAUAUUACGUGGG, the “self-splicing fitness (ln)” value (30 °C) is -2.78 ± 0.14 and the “self-splicing fitness (ln)” value (37 °C) was -0.918 ± 0.11.

With GUACAGCAAUAUUACGAGCC, the “self-splicing fitness (ln)” value runs as follows: (30 °C) -1.6 ± 0.36; (37 °C) -2.01 ± 0.46. In the same order, the values of UGGCAGCAAUAUUACGGAAC are -2.89 ± 0.36 and -1.72 ± 0.21. In the same order, the values of GGUAAGCAAUAUUACGCUCG are -0.274 ± 0.13 and -0.892 ± 0.23. In the same order, the values of AGGGAGCAAUAUUACGGCCG are -1.81 ± 0.16 and -1.96 ± 0.16. Regarding GCACAGCAAUAUUACGUUUC, the “self-splicing fitness (ln)” value (30 °C) was -1.61 ± 0.063 and the “self-splicing fitness (ln)” value (37 °C) is -0.982 ± 0.084. In the same order, the values of AACAAGCAAUAUUACGCCUC are -1.75 ± 0.14 and -0.437 ± 0.15. In the same order, the values of UGUGAGCAAUAUUACGCACU are -2.44 ± 0.16 and -0.665 ± 0.12. For AAGCAGCAAUAUUACGAAUC, the “self-splicing fitness (ln)” value was -2.44 ± 0.16 (30 °C) and -2.12 ± 0.2 (37 °C). As to AUCGAGCAAUAUUACGAAUG, the “self-splicing fitness (ln)” value (37 °C) is -2.06 ± 0.28. On to GGGUAGCAAUAUUACGGUGG, for which the “self-splicing fitness (ln)” value was -2.55 ± 0.27 (30 °C) and -1.61 ± 0.33 (37 °C). In the same order, the values of CGGGAGCAAUAUUACGGUAA are -3.01 ± 0.34 and -1.13 ± 0.21.

For the sequence CUAUAGCAAUAUUACGACGU, the “self-splicing fitness (ln)” value reads like this: (30 °C) -3.85 ± 0.37; (37 °C) -1.96 ± 0.3.

In the case of AUUUAGCAAUAUUACGCGAC, the “self-splicing fitness (ln)” value (30 °C) is -2.16 ± 0.27 and the “self-splicing fitness (ln)” value (37 °C) was -2.87 ± 0.47. In the same order, the values of UGCCAGCAAUAUUACGUUUC are -4.47 ± 0.28 and -1.17 ± 0.16. Turning to AGGUAGCAAUAUUACGUCUU, the “self-splicing fitness (ln)” value was -0.915 ± 0.014 (30 °C) and -0.371 ± 0.033 (37 °C).

For the sequence GCAGAGCAAUAUUACGAAUU, the “self-splicing fitness (ln)” value is -3.99 ± 0.42 (30 °C) and -2.05 ± 0.37 (37 °C). In the same order, the values of AGUUAGCAAUAUUACGUAUU are -2.02 ± 0.1 and -1.04 ± 0.11. In the same order, the values of CGCAAGCAAUAUUACGGUAU are -4.65 ± 0.19 and -2.42 ± 0.13. Take UAGAAGCAAUAUUACGGGUU: the “self-splicing fitness (ln)” value (30 °C) was -4.54 ± 0.34 and the “self-splicing fitness (ln)” value (37 °C) was -1.87 ± 0.2. In the same order, the values of UGUGAGCAAUAUUACGGCCG are -0.763 ± 0.15 and 0.477 ± 0.27. CCAAAGCAAUAUUACGCGAG: the “self-splicing fitness (ln)” value (30 °C) is -2.62 ± 0.098 and the “self-splicing fitness (ln)” value (37 °C) is -1.42 ± 0.094. Turning to CACUAGCAAUAUUACGCAGC, the “self-splicing fitness (ln)” value runs as follows: (30 °C) -3.17 ± 0.31; (37 °C) -2.28 ± 0.37.
